According to patent US20250215089A1 (HARBOUR BIOMED SHANGHAI, published 2025):
Where a chain is given by its changes, count along the chain named. Names and notes keep the numbering of the source.

B1: PR007276 (bispecific antibody, human IgG1, kappa)
heavy: QVQLVESGGGVVQPGMSLRLSCAASGFDFSSYGMYWVRQAPGKGQEWVASIRYTGTEKHYADSVKGRFTISRDNSKNTLYLEMNSLRVEDTAVYYCAKNRALFGVIPDDSDIRGQGTMVTVSSGGGGSQVQLVQSGAEVKKPGASVKVSCKASGYTFAGYYMYWVRQAPGQGLEWMGWINPDSGAPTYAQKFQGRVTMTRDTSISTAYMELSRLRSDDTAVYYCAREKIYYGSGNYYPSFDYWGQGTLVTVSSASTKGPSVFPLAPSSKSTSGGTAALGCLVKDYFPEPVTVSWNSGALTSGVHTFPAVLQSSGLYSLSSVVTVPSSSLGTQTYICNVNHKPSNTKVDKKVEPKSCDKTHTCPPCPAPEAAGAPSVFLFPPKPKDTLMISRTPEVTCVVVDVSHEDPEVKFNWYVDGVEVHNAKTKPREEQYNSTYRVVSVLTVLHQDWLNGKEYKCKVSNKALPAPIEKTISKAKGQPREPQVYTLPPSREEMTKNQVSLTCLVKGFYPSDIAVEWESNGQPENNYKTTPPVLDSDGSFFLYSKLTVDKSRWQQGNVFSCSVMHEALHNHYTQKSLSLSPGK
light: DIQLTQSPSFLSASVGDRVTITCRASQGISSYLAWYQQKPGKAPKLLIYAASTLQSGVPSRFSGSGSGTEFTLTISSLQPEDFATYYCQQLASYPWTFGQGTKVEIKRTVAAPSVFIFPPSDEQLKSGTASVVCLLNNFYPREAKVQWKVDNALQSGNSQESVTEQDSKDSTYSLSSTLTLSKADYEKHKVYACEVTHQGLSSPVTKSFNRGEC
notes: VH of PR006248 (PD-L1) - GS_5 - heavy chain of CD40 IgG PR006495; human IgG1 L234A/L235A/G237A; also called PD-L1×CD40
B2: PR006919 (bispecific antibody, human IgG1, kappa)
heavy: B1 heavy with L102I
light: B1 light with A92F
notes: VH of PR006246 (PD-L1) - GS_5 - heavy chain of CD40 IgG PR006496; human IgG1 L234A/L235A/G237A; also called PD-L1×CD40
B3: PR007070 (bispecific antibody, human IgG1, kappa)
heavy: B1 heavy with D28T
light: B1 light
notes: VH of PR005878 (PD-L1) - GS_5 - heavy chain of CD40 IgG PR006495; human IgG1 L234A/L235A/G237A; also called PD-L1×CD40
B4: PR007151 (bispecific antibody, human IgG1, kappa)
heavy: B1 heavy with D28T
light: B1 light with A92V
notes: VH of PR005878 (PD-L1) - GS_5 - heavy chain of CD40 IgG PR006504; human IgG1 L234A/L235A/G237A; also called PD-L1×CD40
B5: PR007268 (bispecific antibody, human IgG1, kappa)
heavy: B1 heavy with L102I
light: B1 light with A92Y
notes: VH of PR006246 (PD-L1) - GS_5 - heavy chain of CD40 IgG PR006497; human IgG1 L234A/L235A/G237A; also called PD-L1×CD40
B6: PR007269 (bispecific antibody, human IgG1, kappa)
heavy: B1 heavy with L102I
light: B1 light with A92N, S93N
notes: VH of PR006246 (PD-L1) - GS_5 - heavy chain of CD40 IgG PR006511; human IgG1 L234A/L235A/G237A; also called PD-L1×CD40
B7: PR007618 (bispecific antibody, human IgG1, kappa)
heavy: QVQLVESGGGVVQPGMSLRLSCAASGFDFSSYGMYWVRQAPGKGQEWVASIRYTGTEKHYADSVKGRFTISRDNSKNTLYLEMNSLRVEDTAVYYCAKNRALFGVIPDDSDIRGQGTMVTVSSGGSQVQLVQSGAEVKKPGASVKVSCKASGYTFAGYYMYWVRQAPGQGLEWMGWINPDSGAPTYAQKFQGRVTMTRDTSISTAYMELSRLRSDDTAVYYCAREKIYYGSGNYYPSFDYWGQGTLVTVSSASTKGPSVFPLAPSSKSTSGGTAALGCLVKDYFPEPVTVSWNSGALTSGVHTFPAVLQSSGLYSLSSVVTVPSSSLGTQTYICNVNHKPSNTKVDKKVEPKSCDKTHTCPPCPAPEAAGAPSVFLFPPKPKDTLMISRTPEVTCVVVDVSHEDPEVKFNWYVDGVEVHNAKTKPREEQYNSTYRVVSVLTVLHQDWLNGKEYKCKVSNKALPAPIEKTISKAKGQPREPQVYTLPPSREEMTKNQVSLTCLVKGFYPSDIAVEWESNGQPENNYKTTPPVLDSDGSFFLYSKLTVDKSRWQQGNVFSCSVMHEALHNHYTQKSLSLSPGK
light: B1 light
notes: VH of PR006248 (PD-L1) - GS_3 - heavy chain of CD40 IgG PR006495; human IgG1 L234A/L235A/G237A; also called PD-L1×CD40
B8: PR007620 (bispecific antibody, human IgG1, kappa)
heavy: B7 heavy
light: B1 light with A92V
notes: VH of PR006248 (PD-L1) - GS_3 - heavy chain of CD40 IgG PR006504; human IgG1 L234A/L235A/G237A; also called PD-L1×CD40

Legend:
human PD-L1 [1] = biological target: T1, human PD-L1 (human, UniProt Q9NZQ7 19-290); test: FACS, CHO-K1/hPD-L1 cells
T1 construct: whole, on cells; also called hPD-L1; CD274
T1 sequence (Q9NZQ7 19-290): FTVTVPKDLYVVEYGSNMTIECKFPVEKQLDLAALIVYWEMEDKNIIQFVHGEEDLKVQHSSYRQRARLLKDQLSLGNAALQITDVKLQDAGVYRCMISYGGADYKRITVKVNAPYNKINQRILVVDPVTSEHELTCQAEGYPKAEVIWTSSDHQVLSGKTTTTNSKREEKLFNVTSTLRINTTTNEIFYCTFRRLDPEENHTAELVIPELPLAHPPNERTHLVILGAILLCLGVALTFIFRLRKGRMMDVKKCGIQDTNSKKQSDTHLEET
Protocol: (§1) Specifically, the cells expressing PD-L1 were digested and resuspended in PBS buffer containing 2% BSA. The cells were adjusted to a cell density of 1×10⁶ cells/mL, respectively. The cells were seeded in a 96-well V-bottom plate (Corning, #3894) at 100 μL/well, and the antibody to be tested at 2×final concentration with 4-fold concentration gradient dilution was then added at 100 μL/well. The cells were incubated at 4° C. for 2 hours in the dark. After the incubation, the cells were rinsed twice by adding pre-chilled PBS containing 2% BSA at 100 μL/well, and centrifuged at 500 g at 4° C. for 5 minutes, and the supernatant was discarded. […] The cells were washed twice by adding pre-chilled PBS containing 2% BSA at 100 µL/well, and centrifuged at 500 g at 4° C. for 5 minutes, and the supernatant was discarded. Finally, the cells were resuspended in pre-chilled PBS buffer containing 2% BSA at 200 μL/well. The fluorescence signal values were read using a BD FACS CANTOII flow cytometer or ACEA NovoCyte flow cytometer, and the data were processed and analyzed using FlowJo v10 software (FlowJo, LLC).

human CD40 [2] = biological target: T2, human CD40 (human, UniProt P25942 21-277); test: FACS, Raji cells
T2 construct: whole, on cells; also called hCD40; TNFRSF5
T2 sequence (P25942 21-277): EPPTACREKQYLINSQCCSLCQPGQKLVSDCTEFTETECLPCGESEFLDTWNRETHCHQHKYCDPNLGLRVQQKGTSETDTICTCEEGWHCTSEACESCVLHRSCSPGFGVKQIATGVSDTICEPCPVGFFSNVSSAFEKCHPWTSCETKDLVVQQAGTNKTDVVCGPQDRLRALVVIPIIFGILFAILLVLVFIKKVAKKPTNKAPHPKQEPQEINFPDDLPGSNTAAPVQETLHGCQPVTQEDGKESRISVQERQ
Protocol: (§2) The cells were incubated at 4° C. for 1 hours in the dark. After the incubation, the cells were rinsed twice by adding pre-chilled PBS at 100 μL/well, and centrifuged at 500 g at 4° C. for 5 minutes, and the supernatant was discarded. Then, a fluorescent secondary antibody (goat anti-human IgG (H+L) secondary antibody, Alexa Fluor® 488 conjugate, Invitrogen, #A11013, 1:1000 dilution) was added at 100 μL/well, and the cells were incubated at 4° C. for 30 minutes in the dark. The cells were washed twice with pre-chilled PBS at 200 μL/well, and centrifuged at 500 g at 4° C. for 5 minutes, and the supernatant was discarded. Finally, the cells were resuspended in pre-chilled PBS at 200 μL/well. The fluorescence signal values were read using a BD FACS CANTOII flow cytometer or ACEA NovoCyte flow cytometer, and the data were processed and analyzed using FlowJo v10 software (FlowJo, LLC).

human CD40 [3] = biological target: T2, human CD40; test: FACS, CHO-K1/hCD40 cells
Protocol: as §2

cynomolgus monkey PD-L1 = biological target: T3, cynomolgus monkey PD-L1 (cynomolgus monkey); test: FACS, CHO-K1/cyPD-L1 cells
T3 construct: whole, on cells; also called cyPD-L1
Protocol: as §1

human PD-L1 [4] = biological target: T1, human PD-L1; test: FACS, NCI-H226 cells
Protocol: as §1

human CD40 [5] = biological target: T2, human CD40; test: cell-based or functional assay
human PD-L1 [6] = biological target: T1, human PD-L1; test: cell-based or functional assay
cynomolgus monkey CD40 = biological target: T4, cynomolgus monkey CD40 (cynomolgus monkey); test: FACS, CHO-K1/cyCD40 cells
T4 construct: whole, on cells; also called cyCD40
Protocol: as §2

Binder	EC50 (human PD-L1 [1])	Maximum MFI (human PD-L1 [1])	EC50 (human CD40 [2])	Maximum MFI (human CD40 [2])	EC50 (human CD40 [3])	Maximum MFI (human CD40 [3])	EC50 (cynomolgus monkey PD-L1)	Maximum MFI (cynomolgus monkey PD-L1)	EC50 (human PD-L1 [4])	Maximum MFI (human PD-L1 [4])	EC50, HEK293-hCD40-NFκB reporter, + CHO-K1 (human CD40 [5])	EC50, HEK293-hCD40-NFκB reporter, + CHO-K1/hPD-L1 (human CD40 [5])	Maximum (RLU), HEK293-hCD40-NFκB reporter, + CHO-K1 (human CD40 [5])	Maximum (RLU), HEK293-hCD40-NFκB reporter, + CHO-K1/hPD-L1 (human CD40 [5])	EC50, Jurkat-NFAT-hPD1 reporter (human PD-L1 [6])	Maximum (RLU), Jurkat-NFAT-hPD1 reporter (human PD-L1 [6])	EC50 (cynomolgus monkey CD40)	Maximum MFI (cynomolgus monkey CD40)
B1	1.18 nM	19700 MFI	1.45 nM	7570 MFI	2.35 nM	14300 MFI	0.656 nM	4570 MFI	0.569 nM	927 MFI	0.22 nM	0.08 nM	239000 RLU	379000 RLU	0.273 nM	4060 RLU	2.62 nM	57000 MFI
B2	0.96 nM	19600 MFI	1.24 nM	7360 MFI	2.53 nM	18900 MFI	0.622 nM	4540 MFI	0.389 nM	870 MFI	0.144 nM	0.0106 nM	24500 RLU	31400 RLU	0.359 nM	4920 RLU	3.37 nM	76200 MFI
B3	1.15 nM	20500 MFI	1.36 nM	6670 MFI	2.67 nM	15400 MFI	0.779 nM	4870 MFI	0.313 nM	862 MFI	0.136 nM	0.0138 nM	26900 RLU	31700 RLU	0.175 nM	2830 RLU	15.6 nM	93200 MFI
B4	1.14 nM	20700 MFI	1.3 nM	6610 MFI	2.36 nM	16000 MFI	0.754 nM	4930 MFI	0.215 nM	928 MFI	0.425 nM	0.0362 nM	4000 RLU	4900 RLU	0.35 nM	4640 RLU	3.76 nM	75400 MFI
B5	1.08 nM	19600 MFI	1.38 nM	7430 MFI	1.65 nM	16300 MFI	0.68 nM	4550 MFI	0.42 nM	869 MFI	0.266 nM	0.0571 nM	156000 RLU	286000 RLU	0.181 nM	2810 RLU	2.8 nM	65700 MFI
B6	1.12 nM	19700 MFI	1.46 nM	7570 MFI	2.4 nM	16400 MFI	0.714 nM	4670 MFI	0.521 nM	869 MFI	0.234 nM	0.0692 nM	189000 RLU	271000 RLU	0.162 nM	2910 RLU	2.57 nM	53000 MFI
B7	1.04 nM	20100 MFI	1.23 nM	6700 MFI	2.22 nM	16800 MFI	0.69 nM	4870 MFI	0.322 nM	902 MFI	–	–	–	–	0.12 nM	2470 RLU	3.07 nM	67900 MFI
B8	1.15 nM	20300 MFI	1.32 nM	6710 MFI	2.2 nM	15300 MFI	0.757 nM	4840 MFI	0.281 nM	1030 MFI	–	–	–	–	0.319 nM	3740 RLU	2.48 nM	68000 MFI
